This experiment deals with T1, recombinant, purified Xenopus β-catenin (Xenopus, UniProt P26233 1-781).
T1 sequence: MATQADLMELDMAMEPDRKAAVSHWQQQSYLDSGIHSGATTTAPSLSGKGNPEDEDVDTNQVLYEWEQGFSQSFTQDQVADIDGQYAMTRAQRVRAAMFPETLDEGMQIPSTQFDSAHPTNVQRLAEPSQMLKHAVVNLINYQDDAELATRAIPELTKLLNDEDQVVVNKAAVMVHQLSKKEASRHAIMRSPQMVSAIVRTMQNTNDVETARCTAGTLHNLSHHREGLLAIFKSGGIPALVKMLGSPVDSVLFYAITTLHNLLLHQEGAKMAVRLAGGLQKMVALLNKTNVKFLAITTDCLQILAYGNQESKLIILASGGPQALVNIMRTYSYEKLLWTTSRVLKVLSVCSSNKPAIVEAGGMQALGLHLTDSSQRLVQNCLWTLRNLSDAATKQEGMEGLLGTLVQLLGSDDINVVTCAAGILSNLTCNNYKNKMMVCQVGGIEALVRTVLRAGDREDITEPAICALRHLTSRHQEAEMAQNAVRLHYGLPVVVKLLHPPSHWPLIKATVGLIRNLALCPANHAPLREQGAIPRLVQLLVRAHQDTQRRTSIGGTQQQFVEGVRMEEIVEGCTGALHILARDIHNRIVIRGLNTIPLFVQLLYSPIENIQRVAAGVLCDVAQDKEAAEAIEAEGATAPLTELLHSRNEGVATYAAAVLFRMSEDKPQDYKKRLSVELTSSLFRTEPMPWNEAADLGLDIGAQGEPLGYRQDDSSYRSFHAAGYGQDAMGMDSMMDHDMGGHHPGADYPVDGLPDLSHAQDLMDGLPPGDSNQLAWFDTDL
Put plainly: pull-down.

B1: Xenopus C-cadherin cytoplasmic domain GST fusion protein (domain or fragment)
chain: not shown
B1: the binding result is on record as “binds”.

For the origin of these results see article PMC2172558 (The Journal of Cell Biology, 2004).
